Measured values published in the supplement of paper PMC10724198.
± gives the standard deviation of the averaged measurements.

Test system: Saccharomyces cerevisiae
Experiment: protein stability index of tFT-peptide fusion (C-terminal peptide) (PSI (0-1 scale)); higher = more stable (slower turnover)
Conditions: temperature: 30 C
Experimental: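 MPS profiling in S. cerevisiae of the yeast C-terminome library: the last 12 aa of each annotated ORF are fused to the C-terminus of a sfGFP-mCherry timer, after a GGGS linker. Cells are FACS-sorted into 8 mCherry/sfGFP bins and deep-sequenced. PSI runs from 0 (unstable) to 1 (stable); wild type and das1Δ backgrounds, two technical replicates each.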

[1] = genetic background: das1 deletion

Row | Sequence | protein stability index [1] | protein stability index (genetic background: wild type)
1 | KNLWHHKINNLN [RAM2 C-terminal 12 aa] | 0.699 ± 0.017 | 0.166 ± 0.021
2 | KNRFSNGRWGRR [SLD2 C-terminal 12 aa] | 0.701 ± 0.036 | 0.72 ± 0.015
3 | KNRRRNTKKIAF [RLP24 C-terminal 12 aa] | 0.705 ± 0.03 | 0.6678 ± 0.0055
4 | KPEEEKETLQEE [PAF1 C-terminal 12 aa] | 0.69 ± 0.046 | 0.649 ± 0.031
5 | KPSSNNSINIKV [AHK1 C-terminal 12 aa] | 0.707 ± 0.033 | 0.743 ± 0.031
6 | KQIVFEIPSETH [RPS7A C-terminal 12 aa] | 0.701 ± 0.013 | 0.6789 ± 0.0028
7 | KQREKYAAVASK [SOP4 C-terminal 12 aa] | 0.692 ± 0.022 | 0.698 ± 0.043
8 | KQSQRQVPHSIK [SPO21 C-terminal 12 aa] | 0.7194 ± 0.0004 | 0.708 ± 0.011
9 | KQSVQQQKTGNY [YHL009W-A C-terminal 12 aa] | 0.699 ± 0.018 | 0.663 ± 0.00095
10 | KRLGKKTVVTSR [DCC1 C-terminal 12 aa] | 0.701 ± 0.011 | 0.717 ± 0.055
11 | KRRNWRRTKMNI [RPL39 C-terminal 12 aa] | 0.682 ± 0.017 | 0.705 ± 0.04
12 | KSAKTAKASQEL [HTA2 C-terminal 12 aa] | 0.705 ± 0.017 | 0.673 ± 0.023
13 | KSARSWVRSGRL [YPR053C C-terminal 12 aa] | 0.80266 ± 0.00042 | 0.77 ± 0.013
14 | KSCDEDGQEDEA [TPA1 C-terminal 12 aa] | 0.693 ± 0.014 | 0.642 ± 0.011
15 | KSDLISNIRQKI [RBH1 C-terminal 12 aa] | 0.716 ± 0.035 | 0.638 ± 0.037
16 | KSLRSSFGKKLI [PHS1 C-terminal 12 aa] | 0.706 ± 0.052 | 0.717 ± 0.046
17 | KTFINNVINVYH [FRM2 C-terminal 12 aa] | 0.6589 ± 0.006 | 0.674 ± 0.018
18 | KTHTEYGYVMVA [YGR137W C-terminal 12 aa] | 0.618 ± 0.012 | 0.5401 ± 0.0042
19 | KTSLKITHRRVI [YGL117W C-terminal 12 aa] | 0.7424 ± 0.0067 | 0.658 ± 0.0094
20 | KVSPAAAAKKAL [RPS26B C-terminal 12 aa] | 0.684 ± 0.0089 | 0.6696 ± 0.00082
21 | KVWVAGQQVYQI [GUD1 C-terminal 12 aa] | 0.697 ± 0.012 | 0.6639 ± 0.0028

Row | Sequence | protein stability index [1] | protein stability index (genetic background: wild type)
22 | KWGMEDSPPPYH [MDM34 C-terminal 12 aa] | 0.734 ± 0.028 | 0.6942 ± 0.0043
23 | KYCRVPLPENNR [YEL008C-A C-terminal 12 aa] | 0.709 ± 0.015 | 0.677 ± 0.068
24 | KYFCDFLLDPEI [ECM14 C-terminal 12 aa] | 0.741 ± 0.0083 | 0.719 ± 0.01
25 | LANFSNEVAMNN [SWP82 C-terminal 12 aa] | 0.696 ± 0.017 | 0.738 ± 0.13
26 | LARTDVNFMPWF [TRA1 C-terminal 12 aa] | 0.72 ± 0.0086 | 0.744 ± 0.031
27 | LCFSKDIQLDFQ [FIG4 C-terminal 12 aa] | 0.714 ± 0.013 | 0.672 ± 0.043
28 | LDKIKTDDTYTS [FYV7 C-terminal 12 aa] | 0.7 ± 0.024 | 0.6966 ± 0.0045
29 | LDLQNQNKKNLW [PIN4 C-terminal 12 aa] | 0.707 ± 0.02 | 0.707 ± 0.023
30 | LEDQDGSLYLNY [PFU1 C-terminal 12 aa] | 0.712 ± 0.011 | 0.662 ± 0.025
31 | LEHMLEGKEQDE [PRM5 C-terminal 12 aa] | 0.707 ± 0.025 | 0.751 ± 0.036
32 | LEHYSLSTFVCC [YAL045C C-terminal 12 aa] | 0.326 ± 0.032 | 0.3476 ± 0.0029
33 | LESTHDKAIAGK [MNN2 C-terminal 12 aa] | 0.6974 ± 0.0069 | 0.684 ± 0.021
34 | LETAFEEWDYYE [MRX6 C-terminal 12 aa] | 0.731 ± 0.016 | 0.787 ± 0.064
35 | LFGTCLVAMLLF [SPS22 C-terminal 12 aa] | 0.461 ± 0.023 | 0.449 ± 0.022
36 | LFMNAVIKTFKK [DGK1 C-terminal 12 aa] | 0.7 ± 0.0083 | 0.6997 ± 0.0014
37 | LFQALKLEWEII [TEP1 C-terminal 12 aa] | 0.7038 ± 0.0018 | 0.69 ± 0.037
38 | LGDIYTLTNNEL [PHO13 C-terminal 12 aa] | 0.701 ± 0.01 | 0.6802 ± 0.00082
39 | LGDSPSQGRSIS [YPK2 C-terminal 12 aa] | 0.685 ± 0.012 | 0.688 ± 0.024
40 | LGFYYIYTLHRA [ERG9 C-terminal 12 aa] | 0.505 ± 0.045 | 0.498 ± 0.03
41 | LHPFREPAKINI [YDR048C C-terminal 12 aa] | 0.665 ± 0.024 | 0.701 ± 0.054
